± gives the uncertainty stated by the source.
B1: RNA-binding E3 ubiquitin-protein ligase MEX3C, residues 325 to 391; numbered along this chain, Q5U5Q3 (parent)
chain: GQTTVQVRVPYRVVGLVVGPKGATIKRIQQQTHTYIVTPSRDKEPVFEVTGMPENVDRAREEIEMHI

Variants of: B1
Experiment: abundance fitness (aPCA) (normalised: wild type 0, dead -1); higher = more abundant; growth selection in yeast, the domain comes from the species named
Details: Homo sapiens

GQTTVQVRVPYRVVGLVVVPKGATIKRIQQQTHTYIVTPSRDKEPVFEVTGMPENVDRAREEIEMHI and GQTTVQVRVPYRVVGLVVFPKGATIKRIQQQTHTYIVTPSRDKEPVFEVTGMPENVDRAREEIEMHI are within error of each other in abundance fitness: -0.795 ± 0.11 for the first, -0.863 ± 0.27 for the second.

GQTTVQVRVPYRVVGLVVGKKGATIKRIQQQTHTYIVTPSRDKEPVFEVTGMPENVDRAREEIEMHI and GQTTVQVRVPYRVVGLVVGQKGATIKRIQQQTHTYIVTPSRDKEPVFEVTGMPENVDRAREEIEMHI are within error of each other in abundance fitness: -0.026 ± 0.057 for the first, -0.15 ± 0.085 for the second.

GQTTVQVRVPYRVVGLVVGTKGATIKRIQQQTHTYIVTPSRDKEPVFEVTGMPENVDRAREEIEMHI and GQTTVQVRVPYRVVGLVVGVKGATIKRIQQQTHTYIVTPSRDKEPVFEVTGMPENVDRAREEIEMHI are within error of each other in abundance fitness: -0.472 ± 0.11 for the first, -0.449 ± 0.087 for the second.

GQTTVQVRVPYRVVGLVVGCKGATIKRIQQQTHTYIVTPSRDKEPVFEVTGMPENVDRAREEIEMHI and GQTTVQVRVPYRVVGLVVGYKGATIKRIQQQTHTYIVTPSRDKEPVFEVTGMPENVDRAREEIEMHI are within error of each other in abundance fitness: -0.444 ± 0.12 for the first, -0.266 ± 0.18 for the second.

First: GQTTVQVRVPYRVVGLVVGMKGATIKRIQQQTHTYIVTPSRDKEPVFEVTGMPENVDRAREEIEMHI
Second: GQTTVQVRVPYRVVGLVVGHKGATIKRIQQQTHTYIVTPSRDKEPVFEVTGMPENVDRAREEIEMHI
The abundance fitness of the first is lower: -0.763 ± 0.17 for the first, -0.123 ± 0.18 for the second.

Compared with GQTTVQVRVPYRVVGLVVGIKGATIKRIQQQTHTYIVTPSRDKEPVFEVTGMPENVDRAREEIEMHI, GQTTVQVRVPYRVVGLVVGGKGATIKRIQQQTHTYIVTPSRDKEPVFEVTGMPENVDRAREEIEMHI is lower in abundance fitness: 0.051 ± 0.24 for the first, -0.717 ± 0.08 for the second.

Compared with GQTTVQVRVPYRVVGLVVGEKGATIKRIQQQTHTYIVTPSRDKEPVFEVTGMPENVDRAREEIEMHI, GQTTVQVRVPYRVVGLVVGWKGATIKRIQQQTHTYIVTPSRDKEPVFEVTGMPENVDRAREEIEMHI is lower in abundance fitness: -0.139 ± 0.076 for the first, -0.625 ± 0.11 for the second.

Going from GQTTVQVRVPYRVVGLVVGRKGATIKRIQQQTHTYIVTPSRDKEPVFEVTGMPENVDRAREEIEMHI to GQTTVQVRVPYRVVGLVVGAKGATIKRIQQQTHTYIVTPSRDKEPVFEVTGMPENVDRAREEIEMHI, the abundance fitness falls from -0.039 ± 0.05 to -0.381 ± 0.065.

First: GQTTVQVRVPYRVVGLVVGLKGATIKRIQQQTHTYIVTPSRDKEPVFEVTGMPENVDRAREEIEMHI
Second: GQTTVQVRVPYRVVGLVVGSKGATIKRIQQQTHTYIVTPSRDKEPVFEVTGMPENVDRAREEIEMHI
The abundance fitness of the first is lower: -0.59 ± 0.094 for the first, -0.408 ± 0.078 for the second.

Compared with GQTTVQVRVPYRVVGLVVGPKEATIKRIQQQTHTYIVTPSRDKEPVFEVTGMPENVDRAREEIEMHI, GQTTVQVRVPYRVVGLVVGPKCATIKRIQQQTHTYIVTPSRDKEPVFEVTGMPENVDRAREEIEMHI is lower in abundance fitness: -0.389 ± 0.097 for the first, -0.712 ± 0.2 for the second.

GQTTVQVRVPYRVVGLVVGPKDATIKRIQQQTHTYIVTPSRDKEPVFEVTGMPENVDRAREEIEMHI and GQTTVQVRVPYRVVGLVVGPKAATIKRIQQQTHTYIVTPSRDKEPVFEVTGMPENVDRAREEIEMHI are within error of each other in abundance fitness: -0.543 ± 0.15 for the first, -0.489 ± 0.072 for the second.

Going from GQTTVQVRVPYRVVGLVIGPKGATIKRIQQQTHTYIVTPSRDKEPVFEVTGMPENVDRAREEIEMHI to GQTTVQVRVPYRVVGLVGGPKGATIKRIQQQTHTYIVTPSRDKEPVFEVTGMPENVDRAREEIEMHI, the abundance fitness falls from 0.019 ± 0.16 to -0.794 ± 0.08.

GQTTVQVRVPYRVVGLVFGPKGATIKRIQQQTHTYIVTPSRDKEPVFEVTGMPENVDRAREEIEMHI and GQTTVQVRVPYRVVGLVYGPKGATIKRIQQQTHTYIVTPSRDKEPVFEVTGMPENVDRAREEIEMHI are within error of each other in abundance fitness: -0.374 ± 0.13 for the first, -0.256 ± 0.099 for the second.

GQTTVQVRVPYRVVGLVSGPKGATIKRIQQQTHTYIVTPSRDKEPVFEVTGMPENVDRAREEIEMHI and GQTTVQVRVPYRVVGLVWGPKGATIKRIQQQTHTYIVTPSRDKEPVFEVTGMPENVDRAREEIEMHI are within error of each other in abundance fitness: -0.523 ± 0.074 for the first, -0.639 ± 0.13 for the second.

GQTTVQVRVPYRVVGLVDGPKGATIKRIQQQTHTYIVTPSRDKEPVFEVTGMPENVDRAREEIEMHI and GQTTVQVRVPYRVVGLVNGPKGATIKRIQQQTHTYIVTPSRDKEPVFEVTGMPENVDRAREEIEMHI are within error of each other in abundance fitness: -0.367 ± 0.13 for the first, -0.305 ± 0.14 for the second.

GQTTVQVRVPYRVVGLVEGPKGATIKRIQQQTHTYIVTPSRDKEPVFEVTGMPENVDRAREEIEMHI and GQTTVQVRVPYRVVGLVTGPKGATIKRIQQQTHTYIVTPSRDKEPVFEVTGMPENVDRAREEIEMHI are within error of each other in abundance fitness: -0.284 ± 0.062 for the first, -0.26 ± 0.067 for the second.

Compared with GQTTVQVRVPYRVVGLVQGPKGATIKRIQQQTHTYIVTPSRDKEPVFEVTGMPENVDRAREEIEMHI, GQTTVQVRVPYRVVGLVMGPKGATIKRIQQQTHTYIVTPSRDKEPVFEVTGMPENVDRAREEIEMHI is higher in abundance fitness: -0.63 ± 0.14 for the first, -0.119 ± 0.093 for the second.

First: GQTTVQVRVPYRVVGLVPGPKGATIKRIQQQTHTYIVTPSRDKEPVFEVTGMPENVDRAREEIEMHI
Second: GQTTVQVRVPYRVVGLVKGPKGATIKRIQQQTHTYIVTPSRDKEPVFEVTGMPENVDRAREEIEMHI
The abundance fitness of the first is lower: -0.771 ± 0.13 for the first, -0.541 ± 0.086 for the second.

GQTTVQVRVPYRVVGLVAGPKGATIKRIQQQTHTYIVTPSRDKEPVFEVTGMPENVDRAREEIEMHI and GQTTVQVRVPYRVVGLVHGPKGATIKRIQQQTHTYIVTPSRDKEPVFEVTGMPENVDRAREEIEMHI are within error of each other in abundance fitness: -0.433 ± 0.08 for the first, -0.456 ± 0.15 for the second.

Going from GQTTVQVRVPYRVVGLVRGPKGATIKRIQQQTHTYIVTPSRDKEPVFEVTGMPENVDRAREEIEMHI to GQTTVQVRVPYRVVGLVCGPKGATIKRIQQQTHTYIVTPSRDKEPVFEVTGMPENVDRAREEIEMHI, the abundance fitness rises from -0.508 ± 0.061 to -0.258 ± 0.083.

From the Human Domainome abundance scans (Beltran et al. 2025)
